From patent publication US20060233785A1, “Immunointeractive molecules and uses thereof” (priority 2001, published 2006)
Entries after “also recorded” stand apart in the source; their conditions may differ. Where two headings read alike, the source gives them in different places.

Legend:
[1] = tested on: Hev b 6 specific IgE; experiment: ELISA for Hev b 6 specific human IgE (Examples 8 and 9); assay type: binding; settings: for frequency of IgE reactivity in non-latex allergic subjects: 18 non-latex allergic subjects, compared with 6%; for latex allergic subjects positive for IgE binding by ELISA (positive/total) / latex allergic subjects positive for IgE binding by ELISA: 31 latex allergic subjects; for latex allergic subjects positive for IgE binding by ELISA: cut-off mean + 2 SD of non-latex allergic; for IgE binding by ELISA: sera of latex allergic, Hev b 6 sensitised subjects
Procedure: (§1) FIG. 6 is an image of sulphonation abolishing the IgE reactivity of rHev b 6. rHev b 6 (A) and sulphonated rHev b 6 (B) were resolved by 16% SDS-PAGE under non-reducing conditions. Gels were either stained with Coomassie Brilliant Blue (1) or transferred to nitrocellulose. Strips with transferred protein were incubated with the Hev b 6-specific mAb 1A5.4 and binding detected (2). Strips with transferred protein were also incubated with sera from two latex allergic, Hev b 6 sensitized subjects (3 and 4) and one non-latex-allergic, atopic subject (5). The presence or absence of IgE binding was then detected. […] Plates were coated with rHev b 6 and sulphonated rHev b 6 and the presence or absence of IgE-binding detected. As a positive control the Hev b 6-specific mAb 1A5 was used. NB indicates no binding of IgE was detected.
(§2) FIG. 7 is a graphical representation of the disruption of the first disulphide bond of Hev b 6 markedly decreasing IgE binding to rHev b6. IgE from the sera of 31 latex allergic and 18 non-latex allergic subjects assayed by ELISA for the ability to bind rHev b 6 (no substitution) and mutant rHev b 6 (cysteine to alanine substitution at amino acid 3). Plates were coated with both rHev b 6 and mutant rHev b 6 and incubated with subjects' sera (A) Population ELISA. Individual dots represent individual readings. The thin horizontal lines indicated the cut-off for positive for IgE binding to mutant rHev b 6 and rHev b 6, calculated as the mean of the readings for non-latex allergic subjects for each antigen plus 2 SD. The thick horizontal lines indicate the mean of each group. (B) Direct comparison of IgE and mAb binding to rHev b 6 and mutant rHev b 6. A1 to 11, latex-allergic subjects. N1, non-latex allergic subject. Dotted line indicates the cut-off for positive for IgE binding for mutant rHev b 6. The solid line indicates the cut-off for positive for IgE binding for rHev b 6.
(§3) Patient serum samples were tested for Hev b 6 specific IgE using our standard ELISA protocol (Sutherland et al. 2002, supra) with rabbit anti-human IgE (Dako, Denmark) at 1 in 1000 dilution followed by swine anti-rabbit IgG-HRP conjugate (Promega) at I in 1000 dilution. For the Hev b 6-specific mAb 1A5.4 (IgG1/kappa isotype) binding was detected using sheep anti-mouse Ig-HRP (Silenus) at 1 in 1000 dilution.

[2] = tested on: basophils; experiment: Basophil Activation Test; assay type: cell-based, human; settings: for activated basophils / basophil activation above background / basophils activated (above background): 10 μg/ml; for basophil activation above background levels / basophil activation over background: latex allergic subjects; for basophil activation above background levels: 0.1 μg/ml (FIGS. 9B and C); for basophil activation over background: 1 μg/ml; for basophil activation: non-latex allergic control subject N2; for basophil activation above background: one subject (FIG. 9B); for basophils activated (above background): latex allergic subjects (FIGS. 9B, C and D)
Procedure: FIG. 9 is a graphical representation of the basophil Activation Test on a latex allergic donor. Whole blood from a latex allergic, Hev b 6 sensitized subject was incubated with latex allergens. The cells were stained with FITC labelled anti-human IgE polyclonal antibodies and a PE labelled monoclonal anti-human CD63 antibody. Cells were analysed by flow cytometry defining basophils on the basis of scatter (A) and high IgE staining (B). The percentage of activated basophils expressing CD63 was determined (C).
The Basophil Activation Test was performed on whole blood from (A) non-latex allergic subject N2; (B) latex-allergic subject A7; (C) latex-allergic subject A8 and (D) latex-allergic subject A10. Antigens: latex glove extract (GE), hevein peptide (hevein), rHev b 6, mutant rHev b 6 (MU rHev b 6), sulphonated rHev b 6, (sul. rHev b 6), rHev b 5, KLH and house dust mite extract (HDM). All allergens were used at 10 μg/ml except for rHev b 6 and mutant rHev b 6 which were used at 0.1, 1 and 10 μg/ml. The cut-off for positive was set at the level of activated basophils after incubation in stimulation buffer alone (no antigen, horizontal line). A plus symbol (+) indicates antigen to which a subject has either a positive clinical history of allergy and/or a positive reading on an allergen-specific IgE ELISA.
A basophil activation assay based on flow cytometry was used to quantify the activation of basophils after incubation with various allergens. This assay was modified from Paris-Kohler A, Demoly P, Persi L, Lebel B, Bousquet J, Arnoux B. In vitro diagnosis of cypress pollen allergy by using cytofluorimetric analysis of basophils (Basotest). J Allergy Clin Immunol 2000; 105:339-45. Whole blood was collected in 6 ml heparinised vacutainers (Greiner). 100 μl aliquots were preincubated with stimulation buffer (20 mM Hepes, 133 mM NaCl, 5 mM KCl, 7 mM CaCl2, 3.5 mM MgCl2, 1 mg/ml BSA, 20 μl/ml heparin, pH 7.4) containing 2 ng/ml IL-3, for 10 min at 37° C., to increase the sensitivity of the assay. Samples were incubated for 20 min at 37° C. with 100 μl of stimulation buffer alone or stimulation buffer containing either rabbit anti-human IgE (Dako) at 1 in 500 dilution, 2 μM N-fMLP (Sigma, Mo, USA), crude allergen extracts, recombinant latex allergens or Keyhole Limpet Haemocyanin (KLH) (Sigma, Mo, USA). Basophil activation was stopped by incubating at 4° C. for 5 min. Normal goat serum (10 μl) was added to each tube to block non-specific binding of the detection antibody (goat anti-human IgE-FITC) and incubated for 10 min at 4° C. Samples were incubated with goat anti-human IgE-FITC (Caltag, Birmingham, Calif.) at a dilution of 1 in 2.5, and mouse anti-human CD63-R-Phycoerythrin (PE; Caltag, Birmingham, Calif.) at a dilution of 1 in 20, in a 20 μl volume of wash buffer (20 mM HEPES, 133 mM NaCl, 5 mM KCl, 0.27 mM EDTA, pH7.3). RBC were lysed by the addition of 2 ml FACS lysing solution (39 mM NH4Cl, 2.5 mM KHCO3, 0.2 mM EDTA) and incubation for 10 min at room temperature. Cells were centrifuged (250 g, 5 min at 4° C.), resuspended in 3 ml wash buffer, and centrifuged as before. Pellets were resuspended in 200 μl wash buffer, and analysed by flow cytometry (FACScalibur, Becton Dickinson) within 2 h of the experiment. 7AAD (Sigma, Mo, USA) was added to the samples 5 min prior to FACS analysis.

[3] = tested on: Hev b 6-specific mAb 1A5.4; experiment: ELISA for Hev b 6-specific mAb binding to rHev b 6 forms; set-up: species or system mouse
Procedure: as §1, §2, §3

Row | Molecule | frequency of IgE reactivity in non-latex allergic subjects [1] | latex allergic subjects positive for IgE binding by ELISA (positive/total) [1] | latex allergic subjects positive for IgE binding by ELISA [1] [%] | IgE binding by ELISA [1] | activated basophils ([2]; another patient (FIG. 9C)) [%] | basophil activation above background levels [2] | basophil activation over background [2] | basophil activation [2] | basophil activation above background [2] [%] | activated basophils ([2]; third patient) | Hev b 6-specific mAb binding by ELISA [3] | Hev b 6-specific mAb binding by ELISA ([3]; listed as rHevb 6) | basophils activated (above background) [2]
1 | rHev b 6: recombinant Hev b 6 (prohevein) expressed in E. coli from pPROEX-HTa with 6-His tag (protein, left off: small tags and cut ends, recombinant Hev b 6 (prohevein) expressed in E. coli from pPROEX-HTa with 6-His tag) EQCGRQAGGKLCPNNLCCSQWGWCGSTDEYCSPDHNCQSNCKDSGEGVGGGSASNVLATYHLYNSQDHGWDLNAASAYCSTWDANKPYSWRSKYGWTAFCGPVGAHGQSSCGKCLSVTNTGTGAKTTVRIVDQCSNGGLDLDVNVFRQLDTDGKGYERGHITVNYQFVDCGDSFNPLFSVMKSSVIN | same frequency | 21/31 | 68 | bound | 60 | 30-50% | 50-60% | negligible | 60 | 70% | bound to a similar extent | comparable reactivity | –
2 | mutant rHev b 6: rHev b 6 with cysteine to alanine substitution at amino acid 3 of the mature protein (protein, left off: small tags and cut ends, rHev b 6 with cysteine to alanine substitution at amino acid 3 of the mature protein) EQAGRQAGGKLCPNNLCCSQWGWCGSTDEYCSPDHNCQSNCKDSGEGVGGGSASNVLATYHLYNSQDHGWDLNAASAYCSTWDANKPYSWRSKYGWTAFCGPVGAHGQSSCGKCLSVTNTGTGAKTTVRIVDQCSNGGLDLDVNVFRQLDTDGKGYERGHITVNYQFVDCGDSFNPLFSVMKSSVIN | same frequency | 2/31 | 6 | – | 40 | no activation above background levels | 5-10% | negligible | 15 | no activation | comparable reactivity | – | up to 49%
3 | sulphonated rHev b 6: purified rHev b 6 sulphonated in sulphonation buffer to improve solubility (protein, left off: small tags and cut ends) EQCGRQAGGKLCPNNLCCSQWGWCGSTDEYCSPDHNCQSNCKDSGEGVGGGSASNVLATYHLYNSQDHGWDLNAASAYCSTWDANKPYSWRSKYGWTAFCGPVGAHGQSSCGKCLSVTNTGTGAKTTVRIVDQCSNGGLDLDVNVFRQLDTDGKGYERGHITVNYQFVDCGDSFNPLFSVMKSSVIN | – | – | – | no detectable binding; also recorded: lack of reactivity | – | – | – | – | – | – | bound to a similar extent | – | less than 5%
